Results published in paper PMC4447949, “Structures of the Ets Protein DNA-binding Domains of Transcription Factors Etv1, Etv4, Etv5, and Fev” (The Journal of Biological Chemistry, 2015).

How the values were obtained:
Conditions in all cases: protein: recombinant; tags: N-terminal His6 removed by TEV (leaves SM); blunt
Etv1 S334E = Etv1 S334E (human, UniProt P50549 326-429, S334E); assay: EMSA; 0.1 nM probe; 10 mM TCEP; EMSA: 50 mM Tris-HCl pH 7.5, 50 mM NaCl, 2 mM MgCl2, 0.01% Tween 20, 5% glycerol, 1 h at room temperature; proteins reduced with 10 mM TCEP unless stated; 10% native PAGE
Sequence of Etv1 S334E (P50549 326-429 S334E): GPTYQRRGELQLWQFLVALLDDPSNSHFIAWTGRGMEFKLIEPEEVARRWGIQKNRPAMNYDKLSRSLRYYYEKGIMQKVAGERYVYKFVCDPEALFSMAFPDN

Etv1 Y395F = Etv1 Y395F (human, UniProt P50549 326-429, Y395F); assay: as above
Sequence of Etv1 Y395F (P50549 326-429 Y395F): as the sequence (P50549 326-429 S334E) above, with E9S, Y70F counted along it

Etv1 D387A = Etv1 D387A (human, UniProt P50549 326-429, D387A); assay: as above
Sequence of Etv1 D387A (P50549 326-429 D387A): as the sequence (P50549 326-429 S334E) above, with E9S, D62A counted along it

Etv1 R391A = Etv1 R391A (human, UniProt P50549 326-429, R391A); assay: as above
Sequence of Etv1 R391A (P50549 326-429 R391A): as the sequence (P50549 326-429 S334E) above, with E9S, R66A counted along it

Etv1 K404A = Etv1 K404A (human, UniProt P50549 326-429, K404A); assay: EMSA; 2 nM probe; EMSA: 50 mM Tris-HCl pH 7.5, 50 mM NaCl, 2 mM MgCl2, 0.01% Tween 20, 5% glycerol, 1 h at room temperature; proteins reduced with 10 mM TCEP unless stated; 10% native PAGE
Sequence of Etv1 K404A (P50549 326-429 K404A): as the sequence (P50549 326-429 S334E) above, with E9S, K79A counted along it

Etv1 C416S = Etv1 C416S (human, UniProt P50549 326-429, C416S); assay: as above
Sequence of Etv1 C416S (P50549 326-429 C416S): as the sequence (P50549 326-429 S334E) above, with E9S, C91S counted along it

B1: Etv1ALF/Etv1ALR EMSA probe (dsDNA)
DNA 1: ATCTCACCGGAAGTGTAGCA
DNA 2: TGCTACACTTCCGGTGAGAT
Question: For B1, which Kd (Etv1 S334E) is on record?
Answer: Its Kd is 0.94 ± 0.51 nM.

Question: What about the Kd (Etv1 Y395F) of the same binder?
Answer: Its Kd is 1.35 ± 1.05 nM.

Question: What about the Kd (Etv1 D387A) of the same binder?
Answer: Its Kd is 0.19 ± 0.03 nM.

Question: And the Kd (Etv1 R391A)?
Answer: Its Kd is 8.6 ± 1.68 nM.

Question: Does B1 bind (Etv1 K404A)?
Answer: Result: no binding

Question: What about the Kd (Etv1 C416S) of the same binder?
Answer: The Kd was 0.46 ± 0.06 nM.
